The text below walks through data of article PMC6050322, “A radical S-adenosyl-L-methionine enzyme and a methyltransferase catalyze cyclopropane formation in natural product biosynthesis” (Nature Communications, 2018).

The target of this experiment is T1, HemN-like radical SAM enzyme Swoo_2002 (Shewanella woodyi ATCC 51908, UniProt B1KQP7 1-448).
T1 construct: Swoo_2002, HemN-like radical SAM enzyme (counterpart of C10P) from a cryptic biosynthetic gene cluster of Shewanella woodyi ATCC 51908; The enzyme carries one [4Fe-4S] cluster per polypeptide after anaerobic reconstitution; also called C10P surrogate; c10P counterpart; source: E. coli Rosetta(DE3) (strain E. coli RoTB-SW), purified (Ni-NTA, desalination column)
T1 sequence (looked up): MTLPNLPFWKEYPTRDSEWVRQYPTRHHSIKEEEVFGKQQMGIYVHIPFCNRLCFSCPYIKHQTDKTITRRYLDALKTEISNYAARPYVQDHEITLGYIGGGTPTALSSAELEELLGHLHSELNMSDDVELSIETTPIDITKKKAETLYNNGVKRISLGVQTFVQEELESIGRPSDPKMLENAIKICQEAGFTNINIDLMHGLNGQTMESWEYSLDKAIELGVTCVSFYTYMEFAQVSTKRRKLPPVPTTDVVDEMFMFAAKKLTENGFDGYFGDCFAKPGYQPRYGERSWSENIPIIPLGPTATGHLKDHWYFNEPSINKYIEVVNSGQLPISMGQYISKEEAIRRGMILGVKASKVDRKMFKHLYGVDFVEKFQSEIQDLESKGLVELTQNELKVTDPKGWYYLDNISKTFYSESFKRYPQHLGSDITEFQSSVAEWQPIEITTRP
Briefly: ITC; 600 μM C10Q titrated into 200 μL of 60 μM Swoo_2002; PBS buffer pH 7.4 (after desalination, no glycerol, less than 5‰ DMSO); Malvern MicroCal ITC200. Conditions: both partners purified. For orientation: In ITC the heat of successive injections is recorded.

B1: methyltransferase C10Q (enzyme, Streptomyces zelensis NRRL 11183, UniProt A0A1W6EUU7 1-234, looked up)
chain: MTTEAPLLDLAERVPLDRPHGDIEAVRAYDLGMRRSALMAYKRPTERILAAYREGMTDFVDIGFNTGLLSLHVAGRLPDVAVSGVEEFPHLVDVAEDNLTLGVWANMAGDVEFEQSKLSRLPFPDDSADIVYSFSSLHRWRRPVETLREAARVCKPDGTVLIEDVNRLAEEGHITFILQFVKEGGDQFMRSLKAAYSLDQARDLLREAGLDDWHVVEEDLGLVISNRPVTPVSM
notes: SAM-dependent methyltransferase C10Q of the CC-1065 biosynthetic gene cluster, Streptomyces zelensis NRRL 11183; cloned from total DNA by 'similar procedures' as the intact c10P gene; source: E. coli Rosetta(DE3) (strain E. coli Ro37-Q), purified (Ni-NTA, desalination column)
The term Kd denotes the concentration at which binding is half-saturated. Higher therefore signals weaker binding. For B1, binding was put at a Kd of 8 µM.
